Our source for the blocking efficacy values is patent US20250026838A1.

The target in test [1] is Human Galectin-3 (Gal3) protein (human) (UniProt P17931). The experiment in a line: competition ELISA, hGal3 coated; competitor: biotinylated aggregated phospho-tau. Background: ELISA stands for enzyme-linked immunosorbent assay.
Test [2] has the same target. Briefly: competition ELISA, hGal3 coated; competitor: biotinylated aggregated alpha-synuclein.

Sequence of Human Galectin-3 (Gal3) protein (human) (P17931 whole entry): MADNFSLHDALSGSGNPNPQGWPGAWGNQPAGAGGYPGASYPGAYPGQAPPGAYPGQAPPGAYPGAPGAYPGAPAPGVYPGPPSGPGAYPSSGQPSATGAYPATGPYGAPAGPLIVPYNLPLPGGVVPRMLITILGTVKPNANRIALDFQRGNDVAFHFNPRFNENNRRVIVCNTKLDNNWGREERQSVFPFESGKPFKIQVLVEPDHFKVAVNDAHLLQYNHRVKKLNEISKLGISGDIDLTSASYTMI

B1: 2D10-VH0-VL0-hIgG4(S228P) (antibody, V domains shown)
VH: QFQLQQSGPELVKPGASVKISCKASGYTFTDYYINWVKQRPGQGLEWIGWIYPGSNDTKYNEKFKGKATLTVDTSSSTAYMQLGSLTSEDSAVYFCANYFGCSGWFFDVWGTGTTVTVSS
VL: DIVMTQAAFSNPVTLGTSASISCRSSKSLLHSDGITYLYWYLQRPGQSPQLLIYRMSNLASGVPDRFSGSGSGTDFTLRISRVEAEDVGVYYCAQMIEFPLTFGAGTILELKR
As for B1, the blocking efficacy in test [1] and in test [2] was more than 70% each time.

B2: 846.1H5-hIgG4(S228P) (antibody, V domains shown)
VH: EVQLLESGGGLVKPGGSLKLSCAASGFTFSSYAMSWVRQTPEKRLEWVASISSGGDTYYPDSVKGRFTISRDNARNILYLQMSSLRSEDTAMYYCASYGNSLFDYWGQGTTLTVSS
VL: DVVMTQTPLSLPVSLGDQASISCRSSQSLVHNSGNTYLHWYLQRPGQSPNLLIYKVSNRFSGVPDRFSGSGSGTDFTLKISRVAAEDLGVYFCSQSTHVPPTFGGGTKLEIKR
In turn, B2 had a blocking efficacy in test [2] of more than 70%.

B3: 846.1B2-hIgG4(S228P) (antibody, V domains shown)
VH: QIQLVQSGPELKKPGETVKISCKASGYTFTNYGMNWVKQAPGKGLKWMGWINTYTGEPSYADDFKGRFAFSLETSASTAYLQINNLKNEDMATYFCARWGGYAGDYYAMDFWGQGTSVTVSS
VL: NIWLTQSPSSLAVSAGEMVTMTCKSSQSVLYSSNQKNYLAWYQQKPGQSPKLLIYWASTRESGVPDRFTGSGSGTDFSLTISSVQAEDLAVYYCHQYLSSLTFGAGTKLELKR
Turning to B3, the blocking efficacy in test [1] and in test [2] was more than 70% throughout.
